Numbering of substitutions follows the chain as printed. Entries after “also recorded” stand apart in the source; their conditions may differ. Where only a bound is given, the exact number is not on record here.

The text below walks through data of patent US5610063A, “cDNA for α-N-acetyl-galactosaminidase from Gallus domesticus” (Curators of the University of Missouri, priority 1995, dated 1997).

For data set [1], the target named is T1, Gallus α-N-acetyl-galactosaminidase (Gallus gallus, UniProt Q90744).
T1 construct: mature glycoprotein, about 145 kDa oligomer
T1 sequence (Q90744 1-405 S162A): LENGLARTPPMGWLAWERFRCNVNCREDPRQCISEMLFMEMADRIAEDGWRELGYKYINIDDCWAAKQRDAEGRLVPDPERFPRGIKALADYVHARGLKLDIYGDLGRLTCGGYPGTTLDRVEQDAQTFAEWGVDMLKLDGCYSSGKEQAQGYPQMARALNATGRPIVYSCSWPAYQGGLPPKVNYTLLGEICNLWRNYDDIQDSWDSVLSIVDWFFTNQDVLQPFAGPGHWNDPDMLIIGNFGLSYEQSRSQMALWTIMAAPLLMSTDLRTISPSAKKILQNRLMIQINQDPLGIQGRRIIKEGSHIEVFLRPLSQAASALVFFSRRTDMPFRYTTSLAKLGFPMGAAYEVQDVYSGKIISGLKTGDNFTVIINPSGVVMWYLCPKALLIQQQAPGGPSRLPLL
Nature of the data set: Affinity ligand chromatography. Type of data set: binding, Gallus domesticus. To be noted: Affi-Gel 10 coupled ligand. On the procedure:
Synthesis of affinity ligand and resin: .xi.-aminohexanoyl-α-D-galactopyranosYlamine was synthesized by a modification of the method of Harpaz et al. (1974). Purity of the product was determined by thin-layer chromatography and mass spectroscopy. The ligand was coupled to Affi-Gel™ 10 per the manufacturer's directions. Coupling efficiencies of 80%.
Step 5. After dialysis, the pool was applied to a 1.5×20 cm .xi.-aminohexanoyl-α-D-galactopyranosylamine Affi-Gel™ 10 column equilibrated in 50 mM Na acetate+0.1% Triton X-100+0.01% NAN3, pH 5.0. The column was washed with 90 mls of equilibration buffer, and the enzyme was eluted with 50 mM NaH2 PO4 +100 mM methyl-α-D-galactopyranoside+0.1% Triton X-100+0.01% NAN3, pH 7.0. Active fractions were pooled, concentrated, and dialyzed into 50 mM Na acetate+0.1% Triton X-100+0.01% NaN3, pH 5.0.
7. Load the filtrate onto a 2.5×15.0 cm ε-amino-hexanoyl-α-D-galactopyranosylamine Affi-Gel™ 10 column equilibrated with 10 mM NaH2 PO4, pH 5.5 at 4° C. Wash the column with 300 ml of 75 mM NaH2 PO4 pH 5.5. Elute the enzyme from the column with 300 ml (range 50 to 500) of 50 mM NaH2 PO4 +100 mM D-(+)-Galactose, pH 7.0.

The target in data set [2] is T2, Gallus N-acetyl-α-D-galactosaminidase (Gallus gallus, UniProt Q90744).
T2 construct: the cDNA clone corresponds to the region of the mRNA encoding the mature polypeptide for the chicken α-N-acetyl-galactosaminidase; from tissue; host or cells: chicken liver
T2 sequence (Q90744 1-405 S162A): T1 sequence (Q90744 1-405 S162A)
Nature of the data set: Kinetic parameters (Km, turnover number) of Gallus enzyme. It is filed as biochemical, Gallus domesticus. To be noted: Example 1 preparation. On the procedure: Enzymatic activity was quantitated during the purification by measuring production of p-nitrophenol (PNP) from PNP-N-acetyl-α-D-galactosaminide or o-nitrophenol (ONP) from ONP-N-acetyl-α-D-galactosaminide. Enzyme aliquots were incubated in 200 μl of 50 mM Na citrate+1 mg/ml BSA+1.0 mM PNP-N-acetyl-α-D-galactosaminide, pH 3.5, at 37° C. The reactions were quenched with 1.0 ml of 0.25M Na2 CO3 and the OD 405 nm was measured. One unit of activity was defined as 1.0 μmole of substrate hydrolyzed per minute.

Data set [3] deals with T2, Gallus N-acetyl-α-D-galactosaminidase. Nature of the data set: Substrate specificity (relative activity). It is filed as biochemical, Gallus domesticus. To be noted: % of enzyme activity on the corresponding conjugate, 2.5 mM PNP conjugates, pH 3.5.
Data set [4] relates to human α-N-acetyl-galactosaminidase. To be noted: human enzyme; Schram et al, 1977; cited from earlier work.
The nature of another data set: pH optimum. Conditions: for pH optimum: pH 2.0 to 8.0 tested. It is filed as biochemical. On the procedure: The pH optima was determined by incubating aliquots of the enzyme in 40 mM Na citrate+40 mM NaH2 PO4 +1 mg/ml BSA+2.5 mM PNP-N-acetyl-α-D-galactosamide, pH 2.0 to 8.0. The ionic strength optimum was determined by incubating aliquots of the enzyme in 2.5 mM Na citrate+1 mg/ml BSA+2.5 mM PNP-N-acetyl-α-D-galactoside+0 to 1.0M NaCl, pH 3.5 and 6.0. The Kms for ONP- and PNP-N-acetyl-α-D-galactosaminide were determined by varying the substrate concentration in 50 mM Na citrate+1 mg/ml BSA, pH 3.5. The native molecular weight was determined by applying a concentrated portion of the enzyme to a 1×45 cm Sephacryl S-200 column equilibrated in 25 mM Na citrate+200 mM NaCl, pH 6.0. SDS polyacrylamide electrophoresis (SDS-PAGE) was performed according to the method of Laemmli and the protein bands developed with Coomassie R-250 (Laemmli, 1970). Amino acid composition was determined on a Beckman amino acid analyzer (Moore et al., 1954).

The nature of a further data set: Ionic strength optimum. Type of data set: biochemical.
Another data set is described as follows: pI by chromatofocusing. Type of data set: physicochemical. Conditions: Example 1 preparation.
Data set [5] is described as follows: Storage stability at 4° C. It is filed as physicochemical.
Data set [6] is described as follows: Aminopeptidase assay with p-nitroaniline (PNA) substrates. It is filed as biochemical. Conditions: for Aminopeptidase activity: five PNA substrates. On the procedure:
Aminopeptidase assays were performed by incubating aliquots of enzyme with 2.5 mM of various p-nitroaniline (PNA) substrates in 50 mM Na citrate+50 mM NaH2 PO4 +0.1% Triton X-100, pH 5.0 to 8.0 (Macfarlane et al., 1988). The reactions were incubated at 37° C., quenched with 1.0 ml of 0.25M Na2 CO3, and the OD 405 nm was determined. One unit of aminopeptidase activity was defined as 1.0 μmole of PNA hydrolyzed per minute.

The next data set has as its system resorufin-labeled casein. Nature of the data set: Endoprotease (resorufin-labeled casein) assay. Type of data set: biochemical. Conditions: for endoprotease activity, resorufin-labeled casein assay: sensitivity limit 0.01 trypsin BAEE units. On the procedure:
(§1) Endoprotease assays were performed by an adaption of the resorufin-labeled casein assay of Twining (Twining, 1984). The limit of sensitivity of this assay was determined using a trypsin standard. Stable, concentrated, detergent-free enzyme was prepared as described herein. Activity against the blood group antigen on erythrocytes was determined by incubating enzyme at 24°-37° C. for 2-8 hours with either erythrocytes equilibrated in 25 mM Na citrate+50 mM NaH2 PO4 +80 mM NaCl, pH 5.6-5.8, or in 2.5-5 mM Na citrate+300 mM glycine, pH 5.4-5.6. The cells were washed with phosphate buffered saline, pH 7.0, then incubated with varying dilutions of polyclonal or monoclonal antibody, as for example anti-A for A erythrocytes. Other antibodies and buffers could be used for other blood groups as is known in the art. Hemagglutination was performed and titer scored by standard methods (Bryant, 1982).

Data set [7] deals with human A2 erythrocytes. Nature of the data set: Removal of blood group A epitope from A2 erythrocytes (hemagglutination). It is filed as cell-based. To be noted: much higher enzyme concentrations are required. On the procedure: as §1
The enzyme was also tested on human A2 erythrocytes. Removal of the terminal N-acetyl-α-D-galactosaminyl residue from the blood group A epitope, {galNAc(α1-3) gal(β1-R) {fuc(α1-2)} glueNAc(β1-R)}, was achieved by the enzyme as shown in FIG. 8. […] Incubation at 37° C. was necessary because dilute concentrations of glycosidase were used.

Data set [8] concerns human A2 erythrocytes. Nature of the data set: Erythrocyte indices, hemolysis and morphology after enzyme treatment. It is filed as cell-based.
Data set [9] in a line: Selectivity / other glycosidase activities of the enzyme preparation. It is filed as biochemical.
The conditions of data set [10]: Hata et al., 1992; cited from earlier work.
Where [11] appears, read: preparations isolated by the invention.

`NCCCCCC(=O)N[C@H]1O[C@H](CO)[C@H](O)[C@H](O)[C@H]1O` [.xi.-aminohexanoyl-α-D-galactopyranosylamine]: the “active site specific affinity ligand (in words)” value in data set [1] is “efficient active site specific affinity ligand”.

In general, Km refers to the concentration of substrate that gives half-maximal velocity. As for `O=[N+]([O-])c1ccc(O[C@H]2O[C@H](CO)[C@H](O)[C@H](O)[C@H]2O)cc1` [PNP-α-D-galactopyranoside], the “Km (in words)” value in data set [2] is “high Km”. Further, the “Relative Activity” value in data set [3] (Table IV, Example 1 preparation) is 12.74%; in [3] (Table VI, improved purification (Example 2)) it was 15.79%. Also, the Km in data set [4] is 1000 µM.

B1: α-N-acetyl-galactosaminidase: purified exoglycosidase [EC 3.2.1.49] derived from Gallus domesticus (chicken) liver, degrades human blood group A2 epitope (protein, UniProt Q90744 1-405, looked up)
Alpha-N-acetylgalactosaminidas …: T1 sequence (Q90744 1-405 S162A) with A162S
Regarding B1, in the data set “pH optimum” (Example 1 preparation), the “pH range of activity (in words)” value is “broad pH range” and the pH optimum was 3.7. Also, in “pH optimum” (Example 2 preparation), the “pH range of activity (in words)” value is recorded as “broad pH range” and the pH optimum came out at 3.4. Further, the “effect of ionic strength on activity” value in the data set “Ionic strength optimum” (Example 1 preparation, high or low ionic strengths, pH 3.7) is listed as “not strongly inhibited”. Further, in “Ionic strength optimum” (Example 2 preparation, high / increasing ionic strength (pH 3.5)), the “effect of ionic strength on activity” value is “unaffected by increasing ionic strength; also recorded: not significantly affected”. The “pI (approximate mean)” value in the data set “pI by chromatofocusing” is recorded as approximately 8.15. For the same molecule, in [5] (Example 1 preparation, several months), the “loss of activity on storage” value is recorded as “less than 10%”. For the same molecule, the “loss of activity on storage” value in data set [5] (Example 2 preparation, six months) was “less than 5%”. For the same molecule, the “stability (in words)” value in data set [5] (purified enzyme) is “stable at 4 °C”. In addition, the Aminopeptidase activity in data set [6] (Example 1 preparation, below limits of detection) is on record as not above 0.05 units/mg enzyme. For the same molecule, the Aminopeptidase activity result in [6] (Example 2 preparation) was “less than 0.05 units per mg”. Also, the “aminopeptidase activity (in words)” value in data set [6] (setting [11]) is “lacked detectable aminopeptidase”. In the data set on resorufin-labeled casein (Example 1 preparation), the “"trypsin-like activity"” value was “less than 0.78 ng per mg of pure enzyme”; the “proteolytic activity (in words)” value is listed as “No proteolytic activity was detected”; the “endoprotease activity, resorufin-labeled casein assay” value is on record as not above 0.01 BAEE units/mg enzyme. Besides, in the data set with resorufin-labeled casein (Example 2 preparation), the “"trypsin-like activity"” value is listed as “less than 0.78 ng per mg of pure enzyme”; the “proteolytic activity (in words)” value is listed as “no measurable protease activity; also recorded: No proteolytic activity was detected”; the “endoprotease activity, resorufin-labeled casein assay” value is recorded as “less than 0.01 BAEE units/mg enzyme”. The “endoprotease activity (in words)” value in the data set with resorufin-labeled casein (setting [11]) is “lacked detectable aminopeptidase and endoprotease activities”. The “deantigenation at lower temperatures and shorter incubations” value in the data set on human A2 erythrocytes [7] is “achieved deantigenation”. In addition, in the data set on human A2 erythrocytes [8], the “morphology of treated cells” value is “mixed population of normocytes and spiculated cells”. Further, in the data set on human A2 erythrocytes [8] (treated human A2 erythrocytes), the “change in erythrocyte mean corpuscular volume” value was “insignificant change”, the “change in mean corpuscular hemoglobin” value is recorded as “insignificant change”, the “change in mean corpuscular hemoglobin concentration” value was “insignificant change” and the visible hemolysis entry is listed as “little visible hemolysis”. Moreover, in data set [9] (for PNP-N-acetyl-α-D-galactosaminide), the “selectivity (in words)” value was “highly selective”. Moreover, the “other glycosidase activities (in words)” value in data set [9] (preparations of the inventive isolation methods) is listed as “lack other detectable glycosidase activities”. In addition, the “degradation of the human blood group A epitope” value in data set [10] was “degrades the human blood group A epitope”.
